Assay: soluble on expression in E. coli; label from the status in PepcDB or PDB records
With “QGVRTFVDPFTFEDPNQAVREFAKEIDASCIKIEKVIGVGEFGEVCSGRLKVPGKREICVAIKTLKAGYTDKQRRDFLSEASIMGQFDHPNIIHLEGVVTKCKPVMIITEYMENGSLDAFLRKNDGRFTVIQLVGMLRGIGSGMKYLSDMSAVHRDLAARNILVNSNLVCKVSDFGMSRVLEDDPEAAYTTRGGKIPIRWTAPEAIAYRKFTSASDVWSYGIVMWEVMSYGERPYWDMSNQDVIKAIEEGYRLPPPMDCPIALHQLMLDCWQKERSDRPKFGQIVNMLDKLIRNPNSLKRTGSESS” the “soluble on expression in E. coli” value was “soluble”. With “MGSDKIHHHHHHMAIACVNTRASCGVEAPKVTVEVHLSNGLPAFNLVGLPEASVKEARERVRSALINAGFEFPMRRITVNLAPADLPKQGGRYDLPIAVGILAASEQIPANSLKNLEFVGELALSGQIRYCQGLLPAIIAAKRQDNTLILPLENRHDAELVGYQKVFFGSHLQSLAAFLQGQAPLPELDTHLEWVSEEQSYDSSQCLSDVIGQYQAKQALEIAAAGNHNLLMLGPPGTGKTMLASRMMALLPALSYEEALEVAAIHSVAGLDIKPQDFLKRPFRAPHHTSSSISLVGGGSIPKPGEISLAHRGVLFLDEVAEFPRKVLDCLREPMETGEVVISRAAAKLTFLSRFQLIAAMNPSPSGDIDANNRATPDQVQRYLARLSGPFLDRFDLTIEVPKLPAGTLTQAMAPSETSQDVAKRVRRARDIQLARSGVLNSELTGKQLKLFSGLTDADLIFLEQSVVKLGLSVRSFHRIQRVARTIADLEQSPNTERRHLAQALGYRAMDRLLARLSQQY” the “soluble on expression in E. coli” value was “not soluble”. In the case of “MGSDKIHHHHHHMRKMRVLAIGNVFNPSGVSVHIINVLKELVKMGDEVFLYVPSFLVRRNYEVLKDLENAHISVHHSVYETKEAEEVGTLPYFIRSHTVYLRWNNLGEDRKYIDELKDIKPDVIYDMHEDSITLRLSYHIAKRLNKPLVKLLHDEPFRNSFGRGYRKFLGIKGLAYDTLMWMFYKFDKRAFLRSINDGILRGIAGVSKAPFYLSGIEEIAHSVRLKVYEVGNAFNKDIIYKYRRTRGKEDYAVFFARLVPQKGIKELPKIADLLDSKIVVFGKIFNENDRSILMSHPKIEYKGYRPIEEVYNTVAKAKVLIYPSHQDGFSLVVLDTLALGTSVVAYDIPAIRFVFSSLKPVRTVREYDIKEMASTANSILRMKDEEYESEHEDEKVKKFLELHSSWANVAKETHDFLSAFL”, the “soluble on expression in E. coli” value is reported as “not soluble”. In the case of “MSQHNEKNPHQHQSPLHDSSEAKPGMDSLAPEDGSHRPAAEPTPPGAQPTAPGSLKAPDTRNEKLNSLEDVRKGSENYALTTNQGVRIADDQNSLRAGSRGPTLLEDFILREKITHFDHERIPERIVHARGSAAHGYFQPYKSLSDITKADFLSDPNKITPVFVRFSTVQGGAGSADTVRDIRGFATKFYTEEGIFDLVGHNTPIFFIQDAHKFPDFVHAVKPEPHWAIPQGQSAHDTFWDYVSLQPETLHNVMWAMSDRGIPRSYRTMEGFGIHTFRLINAEGKATFVRFHWKPLAGKASLVWDEAQKLTGRDPDFHRRELWEAIEAGDFPEYELGFQLIPEEDEFKFDFDLLDPTKLIPEELVPVQRVGKMVLNRNPDNFFAENEQAAFHPGHIVPGLDFTNDPLLQGRLFSYTDTQISRLGGPNFHEIPINRPTCPYHNFQRDGMHRMGIDTNPANYEPNSINDNWPRETPPGPKRGGFESYQERVEGNKVRERSPSFGEYYSHPRLFWLSQTPFEQRHIVDGFSFELSKVVRPYIRERVVDQLAHIDLTLAQAVAKNLGIELTDDQLNITPPPDVNGLKKDPSLSLYAIPDGDVKGRVVAILLNDEVRSADLLAILKALKAKGVHAKLLYSRMGEVTADDGTVLPIAATFAGAPSLTVDAVIVPCGNIADIADNGDANYYLMEAYKHLKPIALAGDARKFKATIKIADQGEEGIVEADSADGSFMDELLTLMAAHRVWSRIPKIDKIPA”, the “soluble on expression in E. coli” value is reported as “soluble”. In the case of “MAIKDLFNNFFLMDDEEEVESPEERQRRVVQNEENETNNVQQNQPQQSERSYSNQSKLKTVPQKKTTRNYNSEERNVRMNQPPSKSNGKNVVTMNQTSQSYSGYESSKMCLFEPRVFSDTQDIADELKNRRATLVNLQRIDKISAKRIIDFLSGTVYAIGGDIQRVGTDIFLCTPDNVEVAGSITDHIEQMESQHYELEHHHHHH”, the “soluble on expression in E. coli” value is reported as “not soluble”. In the case of “MHINRTGSSQPSIELERFYSASQSLASSSVRELSPAEHANLQAITDYLKDHVFAAHKLPLSESAVDQDAVHAHNEQLDKIIDARARRLLDEGETPATIADTFAKAEKFDRMATTASITLRATPFAAASVLQYMQPAINKGDWLPMPLKPLTPFVSGALSGIMDQVGTTVMNRATGNLHYLSTPPEKLHDAMAASVKRHSPGVMRQAVDLGIAIQAYSARNAVRTVLAPALASRPAVQGAVDISVSAAGGLAANAGFGNRMHSVQARDHLRGGAFVLGIKDQEPKADLSEETDWLVAYKAIKSASYSGAALNAGKRVAGLPLDVATDGLKAVRSLVSATGLAQNGLALAGGFAGVGKLQEMATKNITDPATKAAVSQLTNMAASTGVFAAWTTAAVATDPAVKKAESFLQDTVKSAASSSTSYVADQTVKLAKAGIDASGEAIAATGASLLDTLRRRNAREPDIEEGGIAAGSPSAVPFQPGRS”, the “soluble on expression in E. coli” value is reported as “not soluble”. With “SRPVGPLARRGCCSAPGTPEVPLTRERYPVQRLPFSTVSKQDLAAFERIVPGGVVTDPEALQAPNVDWLRTLRGCSKVLLRPRTSEEVSHILRHCHERNLAVNPQGGNTGMVGGSVPVFDEIILSTARMNRVLSFHSVSGILVCQAGCVLEELSRYVEERDFIMPLDLGAKGSCHIGGNVATNAGGLRFLRYGSLHGTVLGLEVVLADGTVLDCLTSLRKDNTGYDLKQLFIGSEGTLGIITTVSILCPPKPRAVNVAFLGCPGFAEVLQTFSTCKGMLGEILSAFEFMDAVCMQLVGRHLHLASPVQESPFYVLIETSGSNAGHDAEKLGHFLEHALGSGLVTDGTMATDQRKVKMLWALRERITEALSRDGYVYKYDLSLPVERLYDIVTDLRARLGPHAKHVVGYGHLGDGNLHLNVTAEAFSPSLLAALEPHVYEWTAGQQGSVSAEHGVGFRKRDVLGYSKPPGALQLMQQLKALLDPKGILNPYKTLPSQA” the “soluble on expression in E. coli” value was “soluble”. With “MSLTTILDIAKLAGVAKSTVSRYLNGGSVSEPTRQKIERVIKETGYIPNAFAQSLKAKQTNFIGTIVPRLDSFAASRTVMGIDDELKSLGYQMLMSNTDQSVEREIETIYNLANQKIAGVILLATVITKEHLNAFREVGIPTLLVGQEHTEVPCLIHDDFKAGYEMGKHVLSKGHKRIAYLGVGEHDIAVGVKRKEGFKQAMAEHGPCEVAYFETSFSMQDSFRVSPKMIETYQPSALVCATDNIALGALKGAYSIGMNVPKDLSITGFGGYEVTGIIHPSLTTVNFHFKAAGKMAARKMIKLMNGEEVNHLTRMDVELIERESVDNEGHHHHHH” the “soluble on expression in E. coli” value was “soluble”. With “MAHHHHHHMTPTSAITTSAPATATTAEQTPLPPEQTSMFDAPGTPTPAVSAASARATGAQDSSTLMEGAKTETTKQNLAMKGLDRWMKMQLPADWMECIRQNLQLDKHGQPMHAVTEMKDAIPLLITPLTGDVKFFPYFVCSMDVAVRYHYVIQNERDPDTTAVIDDLQRRFGNSGRLLVVRNRYNRGYSGSMNQAFEWALKERTAEEVPWVFACGVDAIFEPGLLAKMIEVVQQNTRGDAAMLAALRAEVELEERLVREGNYSYYERWAPRGRPLKVLRSGYPGVPLNVRTAPLLPDRIRYTVADENRESGIVRPAELRTRFFGNYVATVTPVPDALGTIAVTRLALSAVGYFDENYFPAYMDDIDLRWRHFAYGFGALHGERNGPVTRWHHYNAANLRGSPFVDPDLEKYGTEDNYSRRAFLSYIRRSKGIYDKLKYGPRDMDGVWRQAAQKAEFKYSSFNVSHYPADTWVLDEDARGCMFHHTYNYKTQNWSRPSDCSYNPRTLEESGILGVDQLASYRSMLAEKAFAYQ” the “soluble on expression in E. coli” value was “not soluble”. For “MSLIREAQRSELPAILELWLESTTWGHPFIKANYWRDCIPLVRDAYLANAQNWVWEEDGKLLGFVSIMEGRFLAAMFVAPKAVRRGIGKALMQYVQQRHPHLMLEVYQKNQPAINFYQAQGFHIVDCAWQDETQLPTWIMSWPVVQTLEGGSHHHHHH”, the “soluble on expression in E. coli” value was “soluble”. With “MCPEFQRKAAGAPRMGAMLARCVLTAALALQAAAAARAVEIEIGVASRGVVDGLEFVQFSADERTMATTHWGNVVHLWDLKTLRVRSSVSVANRDFDFDLSPDGRALAVWNEEGKGEIELYDTDNGQPARALPAPRLPQGESRRGRSLVYRDDGTLEFVSHGWIGGHARKAYLLAVPAGQPRAAETPLPALVNSVAFRKSAVMDQGRLLLAGVDGADDELAIMDIASGRMLAREPGFRIASYAADARRAVFVEADGKQRILAFDFSSRSLSTLPRWTGSGKFQPYRFVAGTRFLVLAPDEPDASTRRAAPGIYDLQTRRLHRLPPDADPGSIDVWGATASYVLCNPDHTACQAEVADLAISRKLGTFAVQPSADFRTWISPSGSMVVVGGADDGTMMVWSVKEQRVIGPNLEHHHHHH” the “soluble on expression in E. coli” value was “not soluble”. With “MGSDKIHHHHHHAQTWENVHFNVDWQMNVPLNSNFADKFSGWGMNFEGKYDLTPYWAIGAFLNFHTNHRYVDRRTIPLTPTASLTTDQQQSAFQLPFGISVSYKLPDNRYVKPYFGVKSGAMYSQNSIYNNLVQWYERPWGFYVSPELGMDIHPVPYQRLGFHVAVYYSYATNKTDILTYSEDGRNSMGVRVGVCF” the “soluble on expression in E. coli” value was “not soluble”. In the case of “MAGDPMGGAGLDNAQNVRNQTQNQTKPIHVSDRNEAFNRHNENEQFGYVRYQKEQFDGEQQKTPVMNREETAHMISSLTVQLPHIQDAATLVTDREALVVYKTDSKNRELTADQVKKTAASVIPRYYHVYISDNPNHMQSVENYSNLGSGSRDIREIMSGTIQEMKTSPQGSPVSENENANGETRQDMKIDRNDKNARLEHHHHHH”, the “soluble on expression in E. coli” value is reported as “soluble”. In the case of “MLAKIIMKNFKSFKNETVIDFTRINYKFLENNVSNNGVLKGVAFYGANASGKSNVLWAIRFLLDELFGEEKNPVTFMKCLFSDEPEFSLQYFFVIESREIHYLIDFHTEKGIINEELYLDRKLLLQRMGSTAKSGITEKKVYTDLNNKVLFLRTVYFNTGFSGDDKDNNANNNILRQWFDYMQNSIYVNPFLHRGIAYGKQDVVLNKYLENEGVKEINRFFTKYNFEYTLDYLNERKVKDVTEIVNDDNIKLVFFNRKGVNVPIPYVLESHGNQNLLNILPCFLRVVQNSGMLLVDEFSGGLHNELERLLVNYFFLEHHHHHH”, the “soluble on expression in E. coli” value is reported as “not soluble”. For “MGSDKIHHHHHHMTTFEVKDTAHVAFKIINLRCPHCHHAASFSGFDGCSDLRYNVQAKRHPSGATTNTFDIAGMRRCPNTTCRKLVFVMEDKYGEIESFPPEVIDFDASNLPSDILSSLEEAIRCHAANCYRASALMVRRTLEELCDNKSATGKDLKTRLAALGTVAVIPSELLSAADELRILGNDAAHIEAKDYDSIGKEESEIAIELAKELLKAVYQYTSLVARLTALKKPKQ”, the “soluble on expression in E. coli” value was “not soluble”. For “MQAKPQIPKDKSKVAGYIEIPDADIKEPVYPGPATPEQLNRGVSFAEENESLDDQNISIAGHTFIDRPNYQFTNLKAAKKGSMVYFKVGNETRKYKMTSIRDVKPTDVGVLDEQKGKDKQLTLITCDDYNEKTGVWEKRKIFVATEVK”, the “soluble on expression in E. coli” value was “soluble”. For “MGSDKIHHHHHHMSYGYDKNADDIMKNADHIFEIKGIMRFPDRLKESIGDISIRSFAKKCGLSEGVMRNYLAGKTYPSLDKLALMAEVSNKPLDWLVAGTEHNFNELNEPGSKYVIGINLEEYALIPGYRVQVSAGHGALNCDQQDPVRYLAFRRKWLKYRGFEEHELAIVWAKGDSMEPTIHSNDTLVVHLGRNSPADGHIYIFRNGDDLFVKRYQNAFGSWRLISDNPVYDKLDIPKHEQHQFEVVGQVVHIAKDIGD”, the “soluble on expression in E. coli” value was “not soluble”.
